From patent US20250019457A1 (IBIO, published 2025) come the findings set out here.

In test [1] the target is T1, recombinant CD3ϵδ-HRP heterodimer (Acro Biosystems CDD-HR2W3) (Homo sapiens (Human), UniProt P07766 23-126; P04234 22-105, Conjugated to horseradish peroxidase (HRP). The site and chemistry are not stated and the letters do not carry it.).
T1 construct: Bought HRP conjugate; also called CD3ϵδ heterodimer; not shown: The HRP conjugate and any vendor tags or fusion partners on the two chains (Acro Biosystems CDD-HR2W3); copies: 1 + 1
As to the kind of experiment: direct ELISA: antibody coated at 5 ug/mL, CD3ϵδ-HRP titrated (the axis is the CD3ϵδ-HRP concentration), absorbance at 450 nm. A general note: In an ELISA, binding on a coated surface is turned into a signal by an enzyme label.

The target in test [2] is T2, human TROP2 (purified recombinant antigen, Acro Biosystems Cat #TR2-H5223) (human, UniProt P09758 27-274).
T2 construct: Bought recombinant protein; also called huTROP2
T2 sequence: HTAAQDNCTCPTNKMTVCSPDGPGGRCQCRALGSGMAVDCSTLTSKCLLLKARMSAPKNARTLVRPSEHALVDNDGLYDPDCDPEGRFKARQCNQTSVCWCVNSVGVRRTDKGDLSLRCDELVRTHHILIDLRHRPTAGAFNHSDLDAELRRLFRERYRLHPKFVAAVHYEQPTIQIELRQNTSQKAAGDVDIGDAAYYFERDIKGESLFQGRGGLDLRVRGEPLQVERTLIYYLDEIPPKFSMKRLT
The experiment in a line: MSD assay: biotinylated TROP2 on streptavidin plate, antibody titrated, anti-human SULFO-TAG detection.

The target of test [3] is T3, human EpCAM (purified recombinant antigen, Acro Biosystems Cat #EPM-H5223) (human, UniProt P16422 24-265).
T3 construct: Bought recombinant protein
T3 sequence: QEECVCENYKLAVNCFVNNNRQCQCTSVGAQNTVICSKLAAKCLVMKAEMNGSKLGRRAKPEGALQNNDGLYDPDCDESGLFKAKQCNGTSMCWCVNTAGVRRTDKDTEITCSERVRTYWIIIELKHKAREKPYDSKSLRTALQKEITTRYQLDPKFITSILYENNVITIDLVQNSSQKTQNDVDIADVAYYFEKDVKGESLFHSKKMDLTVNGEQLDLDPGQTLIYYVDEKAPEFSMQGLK
The experiment in a line: SPR, Carterra LSA; antibody captured on anti-human IgG, antigen injected. (In general: SPR reads the build-up and loss of mass on a sensor chip optically.)

Test [4] concerns the target T4, mouse TROP2 (purified recombinant antigen, Acro Biosystems Cat #TR2-M52H6) (mouse, UniProt Q8BGV3 25-270).
T4 construct: Bought recombinant protein; also called msTROP2
T4 sequence: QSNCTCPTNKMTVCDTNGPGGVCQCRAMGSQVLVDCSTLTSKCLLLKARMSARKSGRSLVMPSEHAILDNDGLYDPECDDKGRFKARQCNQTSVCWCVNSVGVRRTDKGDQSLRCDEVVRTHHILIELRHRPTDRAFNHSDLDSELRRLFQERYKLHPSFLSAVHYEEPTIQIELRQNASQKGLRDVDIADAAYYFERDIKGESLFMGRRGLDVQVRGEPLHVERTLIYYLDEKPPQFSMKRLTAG
The test is described as above.

Test [5] addresses T2, human TROP2 (purified recombinant …). As to the kind of experiment: SPR, Carterra LSA; antibody captured on anti-human IgG, antigen injected; 1:1 fit.
Test [6] deals with T5, cynomolgus/rhesus TROP2 (purified recombinant antigen, Acro Biosystems Cat #TR2-R52H3) (cynomolgus/rhesus, UniProt P09758 27-274 (human entry)).
T5 construct: Bought recombinant protein; also called cyTROP2; cyno/rhesus TROP2
T5 chain: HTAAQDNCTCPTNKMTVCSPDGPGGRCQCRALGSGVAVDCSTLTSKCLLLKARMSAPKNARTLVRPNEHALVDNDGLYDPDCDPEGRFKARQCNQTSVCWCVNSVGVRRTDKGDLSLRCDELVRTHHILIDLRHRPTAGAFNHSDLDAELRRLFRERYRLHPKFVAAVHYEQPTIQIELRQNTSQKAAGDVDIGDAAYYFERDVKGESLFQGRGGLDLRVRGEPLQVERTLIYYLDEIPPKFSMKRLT
The description is as above.

The target in test [7] is T6, human Trop2 on cells (FaDu cells, endogenous; ExpiCHO cells overexpressing human Trop2) (human, UniProt P09758 27-323).
T6 construct: Cell-surface form
T6 sequence: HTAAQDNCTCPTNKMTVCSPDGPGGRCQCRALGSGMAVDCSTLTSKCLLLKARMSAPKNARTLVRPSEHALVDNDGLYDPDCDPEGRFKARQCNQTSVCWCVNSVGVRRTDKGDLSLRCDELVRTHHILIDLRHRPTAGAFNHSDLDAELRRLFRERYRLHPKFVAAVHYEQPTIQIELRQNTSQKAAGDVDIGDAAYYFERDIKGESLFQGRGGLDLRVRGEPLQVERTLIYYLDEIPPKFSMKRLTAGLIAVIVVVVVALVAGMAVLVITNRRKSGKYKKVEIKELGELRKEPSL
As to the kind of experiment: flow cytometry on FaDu cells (endogenous human Trop2); average of n=1-3 experiments. In general terms: In flow cytometry, cells or beads pass a laser one at a time.

Test [8] has as its target T2, human TROP2 (purified recombinant …). The experiment in a line: SPR, Carterra LSA; antibody captured on anti-human IgG, antigen injected; 1:1 fit. The source holds these as a separate data set.
In test [9] the target is T7, mouse Trop2 on ExpiCHO cells overexpressing mouse Trop2 (mouse, UniProt Q8BGV3 25-317).
T7 construct: Cell-surface form
T7 sequence: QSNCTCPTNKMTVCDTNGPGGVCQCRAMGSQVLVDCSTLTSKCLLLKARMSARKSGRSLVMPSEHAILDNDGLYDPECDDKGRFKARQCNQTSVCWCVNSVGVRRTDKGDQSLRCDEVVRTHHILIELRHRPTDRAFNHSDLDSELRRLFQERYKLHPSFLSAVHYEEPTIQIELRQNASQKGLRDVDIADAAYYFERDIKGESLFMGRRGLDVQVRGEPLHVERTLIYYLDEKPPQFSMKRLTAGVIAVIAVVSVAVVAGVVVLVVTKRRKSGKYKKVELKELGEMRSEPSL
As to the kind of experiment: flow cytometry on ExpiCHO cells overexpressing mouse Trop2, percent of cells bound; histogram overlay at 66.67 nM.

Like-named read-outs stand apart in the source and are kept apart here.

T1 sequence (P07766 23-126 limits assumed, stated change not applied, chain 1 of 2): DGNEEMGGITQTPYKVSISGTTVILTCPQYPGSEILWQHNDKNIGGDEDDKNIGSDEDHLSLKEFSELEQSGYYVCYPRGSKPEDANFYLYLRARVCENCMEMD
T1 sequence (P04234 22-105 limits assumed, stated change not applied, chain 2 of 2): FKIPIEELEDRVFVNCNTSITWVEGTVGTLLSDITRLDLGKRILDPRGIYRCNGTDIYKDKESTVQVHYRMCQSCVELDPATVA

B1: Gen 1 (antibody, V domains shown)
VH: EVQLVESGGGLVQPGGSLRLSCAASGFTFNTYAMNWVRQAPGKGLEWVGRIRSKYNNYATYYADSVKGRFTISRDDSKNTLYLQMNSLRAEDTAVYYCVRHGNFGNSYVSWFAYWGQGTLVTVSS
VL: DIQMTQSPSSLSASVGDRVTITCRSSTGAVTTSNYANWVQQKPGKAPKGLIGGTNKRAPGVPARFSGSGSGTDFTLTISSLQPEDFATYYCALWYSNLWVFGQGTKVEIK
notes: also called CD3 Gen 1; Gen1 CD3
As usually defined, the EC50 (read off the curve) is the midpoint of the concentration-response curve. With B1, the “EC50 (read off the curve)” value in [1] was approximately 0.04 µg/mL.

B2: SD-025096 (antibody, V domains shown)
VH: QVQLQQSGAELVRPGASVKLSCKASGYTFTSYWINWVKQRPGQGLEWIGNIFPSGSYTNYNQKFKDRATLTVDKSSSTAFMQLSSPTSEDSAIYFCTRGSGFDYWGQGTTLTVSS
VL: DIVLTQSPATLSVTPGDSVSLSCRASQSISNNLHWYQQKSHESPRLLIKYASQSISGIPSRFSGSGSGTDFTLSINSVETEDFGMYFCQQSNSWPFTFGSGTKLEIK
notes: Mouse/human chimera; also called Human IgG1 SD-025096
Broadly, the Kd is the constant that tells how readily two partners part at equilibrium. As usually defined, the EC50 is the concentration needed to bring the measured effect to its halfway point. High values mean lower potency in that assay, low ones higher potency in that assay. As usually defined, the koff is the first-order rate constant of dissociation. In general, kon refers to the rate constant with which the complex forms. As for B2, the “EC50 (read off the curve)” value in test [2] is approximately 0.2 nM. Moreover, the binding result in test [3] and in [4] was “no binding (tested: 1 µM top concentration)” in each case. Also, the dissociation constant Kd in test [5] turned out to be 5.47 nM; in test [6] it was 6.55 nM; in test [8], 5.47 nM. Also, a half-maximal effect in test [7] (EC50) was put at 1.99 nM. Further, in test [8], the dissociation rate constant (koff) turned out to be 0.00165 s⁻¹. Besides, the kon in test [8] came out at 301000 M⁻¹ s⁻¹.

B3: SD-071877 (antibody, V domains shown)
VH: AVTLDESGGGLQTPGGALSLVCKASGFDFSGYGMGWVRQAPGKGLEWVAGITNDGRYIGHGSAVKGRATISRDNGQSTVRLQLNNLRAEDTGTYFCTKCAYRSGCDYEAGSIDAWGHGTEVIVSS
VL: ALALTQPSSVSANLGGTVKITCSGDNNWYGWYQQKSPGSAPVTVIYYDDKRPSDIPSRFSGSRSGSTGTLTITGVQAEDEAVYFCGNRDSSAGYVGIFGAGTTLTVL
notes: Chicken/human chimera
On to B3, for which the binding result in [3] was “no binding (tested: 1 µM top concentration)”; in test [9], “no binding (tested: 66.67 nM)”. Moreover, the equilibrium dissociation constant (Kd) in test [5] amounted to 0.31 nM; in [6], 4.96 nM; in test [8], 0.31 nM. In test [7], this molecule displayed a concentration for a half-maximal effect (EC50) of 1.09 nM. In addition, the off-rate constant (koff) in test [8] was 0.000143 s⁻¹. Moreover, the kon in test [8] was 457000 M⁻¹ s⁻¹.
